The values below come from publication PMC7752791, “Dehydroquinate dehydratase/shikimate dehydrogenases involved in gallate biosynthesis of the aluminum-tolerant tree species Eucalyptus camaldulensis” (Planta, 2020).

Holding throughout (assay type): biochemical, Eucalyptus camaldulensis
Substrate in data set [1]: O=C1C[C@@](O)(C(=O)O)C[C@@H](O)[C@@H]1O
Description: HPLC of 3-DHS formed, Michaelis-Menten fit. To be noted: DQD activity, no cofactor, pH 7, 30 °C. The text has this:
HPLC of 3-DHS formed, Michaelis-Menten fit on EcDQD/SDH3

Substrate in data set [2]: NC(=O)c1ccc[n+]([C@@H]2O[C@H](COP(=O)(O)OP(=O)(O)OC[C@H]3O[C@@H](n4cnc5c(N)ncnc54)[C@H](OP(=O)(O)O)[C@@H]3O)[C@@H](O)[C@H]2O)c1
Description: purified protein. To be noted: shikimate oxidation, pH 9, 30 °C, varied: cofactor.

Substrate in data set [3]: NC(=O)C1=CN([C@@H]2O[C@H](COP(=O)(O)OP(=O)(O)OC[C@H]3O[C@@H](n4cnc5c(N)ncnc54)[C@H](OP(=O)(O)O)[C@@H]3O)[C@@H](O)[C@H]2O)C=CC1
Nature of the data set: purified protein. To be noted: shikimate formation from 3-DHS, varied: cofactor.

Substrate in data set [4]: O=C(O)C1=CC(=O)[C@@H](O)[C@H](O)C1
Description: purified protein. To be noted: shikimate formation with NADPH.

Substrate in data set [5]: O=C(O)C1=C[C@@H](O)[C@@H](O)[C@H](O)C1
Description: purified protein. To be noted: shikimate oxidation with NADP+, pH 9, 30 °C.

Substrate in data set [6]: O=C1C[C@@](O)(C(=O)O)C[C@@H](O)[C@@H]1O
Nature of the data set: HPLC of 3-DHS formed, Michaelis-Menten fit. To be noted: DQD activity, no cofactor, pH 7, 30 °C. The text has this: HPLC of 3-DHS formed, Michaelis-Menten fit on EcDQD/SDH1
This is another data set of the same source.

Substrate in data set [7]: O=C(O)[C@]1(O)C[C@@H](O)[C@@H](O)[C@H](O)C1
Nature of the data set: purified protein. To be noted: quinate oxidation with NAD+, pH 9, 30 °C.

Substrate in data set [8]: NC(=O)c1ccc[n+]([C@@H]2O[C@H](COP(=O)(O)OP(=O)(O)OC[C@H]3O[C@@H](n4cnc5c(N)ncnc54)[C@H](O)[C@@H]3O)[C@@H](O)[C@H]2O)c1
Description: purified protein. To be noted: quinate oxidation, pH 9, 30 °C, varied: cofactor.

Substrate in data set [9]: NC(=O)C1=CN([C@@H]2O[C@H](COP(=O)(O)OP(=O)(O)OC[C@H]3O[C@@H](n4cnc5c(N)ncnc54)[C@H](O)[C@@H]3O)[C@@H](O)[C@H]2O)C=CC1
Description: purified protein. To be noted: quinate formation from 3-DHQ, pH 7.5, 30 °C, varied: cofactor.

Substrate in data set [10]: O=C1C[C@@](O)(C(=O)O)C[C@@H](O)[C@@H]1O
Description: purified protein. To be noted: quinate formation with NADH, pH 7.5, 30 °C.

Substrate in data set [11]: O=C1C[C@@](O)(C(=O)O)C[C@@H](O)[C@@H]1O
Nature of the data set: HPLC of 3-DHS formed, Michaelis-Menten fit. To be noted: DQD activity, no cofactor, pH 7, 30 °C. The source says: HPLC of 3-DHS formed, Michaelis-Menten fit on EcDQD/SDH2
The source holds these as a separate data set.

Broadly, the Km is the concentration of substrate that gives half-maximal velocity. Usually Vmax stands for the top rate of the reaction or transport when substrate is in excess. The term kcat denotes the maximal rate divided by the concentration of active sites. For orientation: kcat/Km means the turnover number divided by the Michaelis constant.

B1: EcDQD/SDH3 (Eucalyptus camaldulensis) (protein)
chain: GSVPFTTSDLQTSTSGFRSSPTLLCTPLMGTTVDQMLIEMRKAKEIGADLVEIRLDCLRNFNPHQDLQILIKQSPLPTLVTYRPVWEGGQYEGDESKRQDALRLAMQLGAHYIDVELEVAHDFNSSILGKKPDNFKIIVSSHNFHNTPSAEAIGNLVARIQATGADIAKIATTALDITDCARIFQITVHSQIPIIGIVMGERGLISRILSPKFGGYLTYGALEAGAISAPGQPTAKDLLDLYNFRLIRPDTKVYGIIGKPVGHSKSPLLFNASYKSVGLNAVYLHFLVDDVEKFFNTYSAVDFASGCSCTIPHKEAALKCMDEIDPIAKKIGAINNIVRRPDGTLTAFNTDYIGAISAIEDGLRGLNGVSSGASPLAGKLFVVLGAGGAGKSLAYGAAQKGARVVVANRTFERAKELADKVGGQAMTLAEVENFHPEEGMVLANTTSVGMKPKIDETPLAKHALKHYCLVFDAIYTPKDTRLLREARETGAVIVYGTEMLIRQGFEQYKNFTGLPAPEELFRTLMEKHA
notes: genome locus by order of listing EcC054875.120
B1: the Km in data set [1] turned out to be 882 ± 42 µM; in the data set “purified protein [2]”, 41.5 ± 2.1 µM; in “purified protein [3]” (pH 6.5, 30 °C), 23.1 ± 1.4 µM; in the data set “purified protein [4]” (pH 6.5, 30 °C), 878 ± 106 µM; in “purified protein [5]” it was 3640 ± 360 µM. Also, the Vmax was 3.83 µmol/min/mg in data set [1]; 73.2 µmol/min/mg in the data set “purified protein [2]”; 77.4 µmol/min/mg in “purified protein [3]” (pH 6.5, 30 °C); 60 µmol/min/mg in “purified protein [4]” (pH 6.5, 30 °C); 84 µmol/min/mg in the data set “purified protein [5]”. Further, the kcat in [1] is 3.67 ± 0.05 s⁻¹; in “purified protein [2]”, 70.2 ± 0.6 s⁻¹; in “purified protein [3]” (pH 6.5, 30 °C) it was 74.1 ± 1.2 s⁻¹; in “purified protein [4]” (pH 6.5, 30 °C), 57.6 ± 1.7 s⁻¹; in the data set “purified protein [5]”, 80.7 ± 2.9 s⁻¹. The catalytic efficiency (kcat/Km) was found to be 4160 M⁻¹ s⁻¹ in data set [1]; 1.69e+06 M⁻¹ s⁻¹ in the data set “purified protein [2]”; 3.21e+06 M⁻¹ s⁻¹ in the data set “purified protein [3]” (pH 6.5, 30 °C); 65600 M⁻¹ s⁻¹ in the data set “purified protein [4]” (pH 6.5, 30 °C); 22200 M⁻¹ s⁻¹ in the data set “purified protein [5]”.

B2: EcDQD/SDH1 (Eucalyptus camaldulensis) (protein)
chain: ASTGNVLLATSSAPHEMESGAVRKNSTLICVPVMADSVEEMVIQLDKAKSSGADLVEIRVDSLKNLSPHEDLKTLIKASALPTLFTYRPKWEGGQYDGDDKPRLETLRLAMELGADYIDVELKVASEFNASIQGRKPEKCKVIVSSHNYENTPSAEDLSNLVARIQAAGADIVKIATTALDITDVERMFHITVHSQVSSVPVIGMVMGERGLISRVLCAKFGGFLTFGTLESGVVSAPGQPTIKDLLDLYNFRSIGPDTKVFGIIGKPVGHSKSPLLYNQAFKSAGFDGVFLHLLVDDVASFLQTYSSTDFAGFSCTIPHKEAAVKCCDEVDPVAKSIGAVNCIIRRQSDAKLFGYNTDYVGAISAIEDGLRGSQNGNSAGASPLNGKLFVVIGAGGAGKALGYGAKEKGARVVIANRTYDRARELAETIGGDALSLADLENFHPEDGMILANTTSIGMQPKVDETPIPKHALKHYSLVFDAVYTPKITRLLKEAEECGATIVSGLEMFIGQAYGQYERYTGLPAPKELFRKIMSKY
notes: genome locus by order of listing EcC055014.20
With B2, the Km in [6] was 449 ± 22 µM; in “purified protein [2]”, 56.5 ± 2.3 µM; in “purified protein [3]” (pH 6.5, 30 °C), 49.5 ± 3.6 µM; in “purified protein [4]” (pH 6.5, 30 °C), 381 ± 34 µM; in the data set “purified protein [5]”, 32.6 ± 1.9 µM. The Vmax stood at 63 µmol/min/mg in data set [6]; 822 ± 6 µmol/min/mg in the data set “purified protein [2]”; 404 µmol/min/mg in “purified protein [3]” (pH 6.5, 30 °C); 318 µmol/min/mg in “purified protein [4]” (pH 6.5, 30 °C); 780 ± 6 µmol/min/mg in “purified protein [5]”. The kcat came out at 60.4 ± 0.7 s⁻¹ in data set [6]; 792 ± 6 s⁻¹ in “purified protein [2]”; 389 ± 9 s⁻¹ in “purified protein [3]” (pH 6.5, 30 °C); 307 ± 5 s⁻¹ in “purified protein [4]” (pH 6.5, 30 °C); 755 ± 6 s⁻¹ in “purified protein [5]”. Also, the kcat/Km in data set [6] amounted to 135000 M⁻¹ s⁻¹; in “purified protein [2]” it was 1.4e+07 M⁻¹ s⁻¹; in “purified protein [3]” (pH 6.5, 30 °C) it was 7.86e+06 M⁻¹ s⁻¹; in the data set “purified protein [4]” (pH 6.5, 30 °C) it was 805000 M⁻¹ s⁻¹; in “purified protein [5]”, 2.32e+07 M⁻¹ s⁻¹.

B3: EcDQD/SDH4a (EcQDHa) (Eucalyptus camaldulensis) (protein)
chain: GSLSLSSVGLTMVCAPVMGESVDQVVEEMHKAKAQGADVVEVRLDCIKQFQAHQDLEIILKSKPLPVIIVYRPKCEGGLYEGDETARLEALRSALKLGADYVDFELKVAAELMSKQNKLHCGGTKVIVSCFLDGVTPSKEELSNLATHMKATGADIIKIVTSASNITELAGLFHLLSYSQMPVVAYAVGERGLISQLLSPKFGSTLVYGSIEGMAVPGLPTLESLRKTYKVEHINSDTTVFGLISKPVGHSKGPILHNPTLRHMNFNGLYVPMFVDNLKEFFEVYSTPDFAGFSVGFPYKEAVIQFCDEVHPLAQTIGAVNTIVRRPSDGKLIGYNTDCEASVTAMEDALQECRCINGEKSLVSPLAGKEFVLVGAGGAGRALAFGAKTRGARIIIFDIDFERAKMLAHAVSGEARPFGDLPYFQPEKGSILANATPIGMHPNKDRIPVSEASLGVFQLVFDAVYTPRKTTLLKEAEAAGAITVSGVEMFLRQAIGQFNLFTGGEAPKEFMREIVLAKF
As for B3, in “purified protein [7]”, the Km is 164 ± 10 µM, the Vmax stood at 135 µmol/min/mg, the kcat came out at 127 ± 2 s⁻¹ and the kcat/Km amounted to 771000 M⁻¹ s⁻¹. Moreover, in the data set “purified protein [8]”, the Michaelis-Menten constant (Km) was 53.7 ± 1.7 µM, the Vmax came to 148 µmol/min/mg, the kcat worked out at 139 ± 1 s⁻¹ and the catalytic efficiency (kcat/Km) amounted to 2.59e+06 M⁻¹ s⁻¹. Besides, in “purified protein [9]”, the Km was determined as 102 ± 9 µM, the Vmax is 318 µmol/min/mg, the kcat is 298 ± 8 s⁻¹ and the kcat/Km was determined as 2.92e+06 M⁻¹ s⁻¹. For the same protein, in the data set “purified protein [10]”, the Km stood at 1400 ± 120 µM, the maximal velocity (Vmax) is 300 µmol/min/mg, the kcat amounted to 281 ± 7 s⁻¹ and the kcat/Km turned out to be 201000 M⁻¹ s⁻¹.

B4: EcDQD/SDH2 (Eucalyptus camaldulensis) (protein)
chain: TLSSIPLTAADLQIPAGGRRNSTLLCAPVMGESVDQMLGQIRAAKEQGADLVEVRLDFLKSFSPKQDLEILLKQSALPTLVTYRPKWEGGQYEGDDSQRLDALRLALELGADYVDVELQVAQEFFSSIQGKKPEKAKIIVSSHNYQNTPSSEELGNLVAKIQATGADIVKIATTALDISDCPRIFEVLAHSQVPTIAIAMGERGLISRILAAKFGGYLTFGAIEAGVVSAPGQPSIKDLLDLYNLRQLGPDTKVHGVIGKPIGHSKSPHLYNAAFKSVNFNGIYLPLLVDNVANFINAYSSPDFVGYSYTIPHKEDGLRCCDEVDPIAKAIGAISQMIRRPTDGKMIGYNVDYLGAIAAIEEALRASNGASPTTTSPLAGKLFVVIGAGGAGKALAYGAMEKGARVVVANRTYEKAKELASKVGGQAITLAELENFHPEDGMVLANTTSVGMKPNVDLTPLPKNALSRYCLVFDAIYTPKLTRLLREAQEVGAIPVYGTEMFINQAFVQFERFTGYPAPKQLIRDTLVKNS
notes: genome locus by order of listing EcC035206.10
Consider B4, for which the Km is 322 ± 13 µM in [11]; 65.2 ± 2.7 µM in the data set “purified protein [2]”; 4.38 ± 0.43 µM in the data set “purified protein [3]” (pH 8.5, 30 °C); 8830 ± 1210 µM in the data set “purified protein [4]” (pH 8.5, 30 °C); 2050 ± 200 µM in “purified protein [5]”. For the same protein, the maximum rate (Vmax) in [11] turned out to be 32.4 µmol/min/mg; in the data set “purified protein [2]”, 141 µmol/min/mg; in “purified protein [3]” (pH 8.5, 30 °C) it was 28.9 µmol/min/mg; in the data set “purified protein [4]” (pH 8.5, 30 °C) it was 49.3 µmol/min/mg; in “purified protein [5]”, 153 µmol/min/mg. In addition, the kcat stood at 30.9 ± 0.3 s⁻¹ in data set [11]; 135 ± 1 s⁻¹ in “purified protein [2]”; 27.6 ± 0.5 s⁻¹ in the data set “purified protein [3]” (pH 8.5, 30 °C); 47 ± 3.3 s⁻¹ in the data set “purified protein [4]” (pH 8.5, 30 °C); 146 ± 4 s⁻¹ in the data set “purified protein [5]”. The kcat/Km was found to be 96200 M⁻¹ s⁻¹ in data set [11]; 2.07e+06 M⁻¹ s⁻¹ in the data set “purified protein [2]”; 6.3e+06 M⁻¹ s⁻¹ in the data set “purified protein [3]” (pH 8.5, 30 °C); 5320 M⁻¹ s⁻¹ in “purified protein [4]” (pH 8.5, 30 °C); 71300 M⁻¹ s⁻¹ in the data set “purified protein [5]”.
